Reference: patent publication US7510715
Where two headings read alike, the source gives them in different places.

What was measured:
[1] = biological target: human CCR5 on cells (CEM.NKR-CCR5 transfectants; PM1 T cells; PBMCs; macrophages) (human) (UniProt P51681)
[2] = biological target: human CCR5 on cells (CEM.NKR-CCR5 transfectants; PM1 T cells; PBMCs; macrophages) (human) (UniProt P51681); assay: flow cytometry, FITC-2D7 on PM1 cells, no treatment; isotype control subtracted
[3] = biological target: human CCR5 on cells (CEM.NKR-CCR5 transfectants; PM1 T cells; PBMCs; macrophages) (human) (UniProt P51681); assay: flow cytometry, FITC-2D7 on PM1 cells after RANTES + MIP-1β (1 µg/mL each, 2 hours at 37° C.); isotype control subtracted
[4] = biological target: human CD4 on PM1 cells (human) (UniProt P01730)
[5] = biological target: human CD4 on PM1 cells (human) (UniProt P01730); assay: flow cytometry, FITC-Leu 3a on PM1 cells, no treatment; isotype control subtracted
[6] = biological target: human CD4 on PM1 cells (human) (UniProt P01730); assay: flow cytometry, FITC-Leu 3a on PM1 cells after RANTES + MIP-1β (1 µg/mL each, 2 hours at 37° C.); isotype control subtracted
[7] = biological target: human CCR5 on cells (CEM.NKR-CCR5 transfectants; PM1 T cells; PBMCs; macrophages) (human) (UniProt P51681); assay: cell-based or functional assay

Q: What does the source list for “FITC-conjugated 2D7 (anti-CCR5; Pharmingen) (antibody)”?
A: ΔMFC [1]: 104 ΔMFC; ΔMFC [2]: 119 ΔMFC; ΔMFC [3]: 35 ΔMFC

Q: What does the source list for “FITC-conjugated Leu 3a (anti-hCD4; Becton Dickinson) (antibody)”?
A: ΔMFC [4]: 105 ΔMFC; ΔMFC [5]: 112 ΔMFC; ΔMFC [6]: 109 ΔMFC

Q: For “recombinant Plasmodium falciparum cyclophilin (PfCyp19) (enzyme)”, which Inhibition, % of 12E1(JR-FL)/PM1 fusion, P falciparum cyclophilin at 10 µg/mL [7] is on record?
A: 0%
